Article PMC3206016, “Putting into Practice Domain-Linear Motif Interaction Predictions for Exploration of Protein Networks” (PLoS ONE, 2011)
Ends that are not written are not given here. * marks the point of attachment. Biotin = O=C1N[C@H]2[C@H](CS[C@H]2CCCCC(=O)*)N1

B2: SCRIB-34/4 (MBP fusion of the tandem of the third and fourth PDZ domains of SCRIB) (domain or fragment)
chain: EGPYPVEEIRLPRAGGPLGLSIVGGSDHSSHPFGVQEPGVFISKVLPRGLAARSGLRVGDRILAVNGQDVRDATHQEAVSALLRPCLELSLLVRRDPAPPGLRELCIQKAPGERLGISIRGGARGHAGNPRDPTDEGIFISKVSPTGAAGRDGRLRVGLRLLEVNQQSLLGLTHGEAVQLLRSVGDTLTVLVCDGFE
notes: also called MBP-PDZ analyte SCRIB-34/4; tandem PDZ construct; source: E. coli BL21 DE3, purified (amylose column, Superdex 75 gel filtration)
B19: MAGI1-2/6 (MBP fusion of the second of the six PDZ domains of MAGI1) (domain or fragment)
chain: KPFFTRNPSELKGKFIHTKLRKSSRGFGFTVVGGDEPDEFLQIKSLVLDGPAALDGKMETGDVIVSVNDTCVLGHTHAQVVKIFQSIPIGASVDLELCRGYPLPFDPDDPNTSLVTSVAILDKEP
notes: source: E. coli BL21 DE3, purified (amylose column, Superdex 75 gel filtration)
B21: MAGI1-3/6 (MBP fusion of the third of the six PDZ domains of MAGI1) (domain or fragment)
chain: SHGYPNDTVSLASSIATQPELITVHIVKGPMGFGFTIADSPGGGGQRVKQIVDSPRCRGLKEGDLIVEVNKKNVQALTHNQVVDMLIECPKGSEVTLLVQRGGLPVPKKSPKSQPLERKDSQNSSQHSVSSHRSLHTASP
notes: as for B19
B22: SCRIB-3/4 (MBP fusion of the third of the four PDZ domains of SCRIB) (domain or fragment)
chain: EGPYPVEEIRLPRAGGPLGLSIVGGSDHSSHPFGVQEPGVFISKVLPRGLAARSGLRVGDRILAVNGQDVRDATHQEAVSALLRPCLELSLLVRRDP
notes: also called MBP-PDZ analyte SCRIB-3/4; source: E. coli BL21 DE3, purified (amylose column, Superdex 75 gel filtration)

Assays:
Assay in all cases: SPR
Details in all cases: both partners purified
[1] = target: B19
[2] = target: B21
[3] = target: B22
[4] = target: T1, 16E6_05 (short peptide of HPV16 early protein E6: GSGAG and the last five residues) (human papilloma virus 16, biotin at N-terminus)
T1 construct: also called 16E6 short; source: synthetic peptide (JPT Peptide Technologies)

[5] = target: T2, TAX1_05 (short peptide of the Trans-activating transcriptional regulatory protein of HTLV-1: GSGAG a (HTLV-1A, biotin at N-terminus))
T2 construct: source: synthetic peptide (JPT Peptide Technologies)

[6] = target: B22; remark: listed apart in the source
[7] = target: B2
[8] = target: B22; remark: listed apart in the source
[9] = target: B19; remark: listed apart in the source
[10] = target: B21; remark: listed apart in the source
[11] = target: B2; remark: listed apart in the source
[12] = target: B21; remark: listed apart in the source
[13] = target: B22; remark: listed apart in the source
[14] = target: B2; remark: listed apart in the source
[15] = target: B21; remark: listed apart in the source
[16] = target: B2; remark: listed apart in the source
[17] = target: B19; remark: listed apart in the source

B1: DLL1_05 (short peptide of Delta-like protein 1: GSGAG and the last five residues) (peptide)
peptide: Biotin-GSGAGIATEV
notes: also called DLL1 short; source: synthetic peptide (JPT Peptide Technologies)
Kd [1]: 32 µM | Kd [2]: 246 µM | Kd [3]: 200 µM

B2
Kd [4]: 1 µM | Kd [5]: 1 µM

B3: GLAST_05 (short peptide of Excitatory amino acid transporter 1: GSGAG and the last five residues) (peptide)
peptide: Biotin-GSGAGSETKM
notes: also called GLAST short; source: synthetic peptide (JPT Peptide Technologies)
Kd [6]: 182 µM | Kd [7]: 179 µM

B4: ADAM17_10 (long peptide of Disintegrin and metalloproteinase domain-containing protein 17: the last ten residues) (peptide)
peptide: Biotin-NRVDSKETEC
notes: also called ADAM17 long; source: synthetic peptide (JPT Peptide Technologies)
Kd [8]: 97 µM | Kd [6]: 79 µM | Kd [7]: 8 µM

B5: ATP1A1_05 (short peptide of Sodium/potassium-transporting ATPase subunit alpha-1: GSGAG and the last five residues) (peptide)
peptide: Biotin-GSGAGKETYY
notes: also called ATP1A1 short; source: synthetic peptide (JPT Peptide Technologies)
Kd [6]: 1280 µM

B6: ATP1A1_10 (long peptide of Sodium/potassium-transporting ATPase subunit alpha-1: the last ten residues) (peptide)
peptide: Biotin-GGWVEKETYY
notes: also called ATP1A1 long; source: synthetic peptide (JPT Peptide Technologies)
Kd [6]: 88 µM

B7: CYSLTR2_05 (short peptide of Cysteinyl leukotriene receptor 2: GSGAG and the last five residues) (peptide)
peptide: Biotin-GSGAGKETRV
notes: also called CYSLTR2 short; source: synthetic peptide (JPT Peptide Technologies)
Kd [9]: 30 µM | Kd [10]: 21 µM | Kd [6]: 103 µM | Kd [7]: 10 µM

B8: CYSLTR2_10 (long peptide of Cysteinyl leukotriene receptor 2: the last ten residues) (peptide)
peptide: Biotin-SVWLRKETRV
notes: also called CYSLTR2 long; source: synthetic peptide (JPT Peptide Technologies)
Kd [9]: 4 µM | Kd [6]: 34 µM | Kd [7]: 15 µM

B9: TTC24_05 (short peptide of Tetratricopeptide repeat protein 24: GSGAG and the last five residues) (peptide)
peptide: Biotin-GSGAGICTIV
notes: also called TTC24 short; source: synthetic peptide (JPT Peptide Technologies)
Kd [9]: 65 µM | Kd [10]: 34 µM | Kd [6]: 239 µM | Kd [7]: 25 µM

B10: ABC1_05 (short peptide of ATP-binding cassette sub-family A member 1: GSGAG and the last five residues) (peptide)
peptide: Biotin-GSGAGKESYV
notes: also called ABC1 short; source: synthetic peptide (JPT Peptide Technologies)
Kd [1]: 91 µM | Kd [2]: 26 µM | Kd [3]: 229 µM | Kd [11]: 10 µM

B11: ARHGAP6_05 (short peptide of Rho GTPase-activating protein 6: GSGAG and the last five residues) (peptide)
peptide: Biotin-GSGAGPETLV
notes: also called ARHGAP6 short; source: synthetic peptide (JPT Peptide Technologies)
Kd [1]: 2000 µM | Kd [2]: 58 µM | Kd [3]: 216 µM | Kd [11]: 31 µM

B12: ARHGAP6_10 (long peptide of Rho GTPase-activating protein 6: the last ten residues) (peptide)
peptide: Biotin-NPDALPETLV
notes: also called ARHGAP6 long; source: synthetic peptide (JPT Peptide Technologies)
Kd [1]: 18 µM | Kd [2]: 41 µM | Kd [3]: 541 µM | Kd [11]: 28 µM

B13: ABC1_10 (long peptide of ATP-binding cassette sub-family A member 1: the last ten residues) (peptide)
peptide: Biotin-QDEKVKESYV
notes: also called ABC1 long; source: synthetic peptide (JPT Peptide Technologies)
Kd [1]: 45 µM | Kd [2]: 20 µM | Kd [3]: 107 µM | Kd [11]: 8 µM

B14: NET1_05 (short peptide of Neuroepithelial cell-transforming gene 1 protein: GSGAG and the last five residues) (peptide)
peptide: Biotin-GSGAGKETLV
notes: also called NET1 short; source: synthetic peptide (JPT Peptide Technologies)
Kd [1]: 62 µM | Kd [2]: 23 µM | Kd [3]: 308 µM | Kd [11]: 15 µM

B15: NET1_10 (long peptide of Neuroepithelial cell-transforming gene 1 protein: the last ten residues) (peptide)
peptide: Biotin-SGGKRKETLV
notes: also called NET1 long; source: synthetic peptide (JPT Peptide Technologies)
Kd [1]: 3 µM | Kd [2]: 37 µM | Kd [3]: 217 µM | Kd [11]: 63 µM

B16: PTEN_05 (short peptide of PTEN: GSGAG and the last five residues) (peptide)
peptide: Biotin-GSGAGQITKV
notes: also called PTEN short; source: synthetic peptide (JPT Peptide Technologies)
Kd [12]: 453 µM

B17: PTEN_10 (long peptide of PTEN: the last ten residues) (peptide)
peptide: Biotin-EDQHTQITKV
notes: also called PTEN long; source: synthetic peptide (JPT Peptide Technologies)
Kd [12]: 144 µM

B18: TANC1_05 (short peptide of Tetratricopeptide repeat, ankyrin repeat and coiled-coil domain-containing protein 1: GSGAG and the last five residues) (peptide)
peptide: Biotin-GSGAGIESNV
notes: also called TANC1 short; source: synthetic peptide (JPT Peptide Technologies)
Kd [12]: 14 µM | Kd [13]: 498 µM | Kd [14]: 9 µM

B19
Kd [4]: 7 µM | Kd [5]: 33 µM

B20: DLL1_10 (long peptide of Delta-like protein 1: the last ten residues) (peptide)
peptide: Biotin-KDECVIATEV
notes: also called DLL1 long; source: synthetic peptide (JPT Peptide Technologies)
Kd [2]: 238 µM | Kd [3]: 172 µM

B21
Kd [5]: 75 µM

B22
Kd [4]: 12 µM | Kd [5]: 96 µM

B23: SCRIB-4/4 (MBP fusion of the fourth of the four PDZ domains of SCRIB) (domain or fragment)
chain: GLRELCIQKAPGERLGISIRGGARGHAGNPRDPTDEGIFISKVSPTGAAGRDGRLRVGLRLLEVNQQSLLGLTHGEAVQLLRSVGDTLTVLVCDGFE
notes: also called MBP-PDZ analyte SCRIB-4/4; source: E. coli BL21 DE3, purified (amylose column, Superdex 75 gel filtration)
Kd [5]: 50 µM

B24: GLUT7_05 (short peptide of Solute carrier family 2, facilitated glucose transporter member 7: GSGAG and the last five residues) (peptide)
peptide: Biotin-GSGAGKETSF
notes: also called GLUT7 short; source: synthetic peptide (JPT Peptide Technologies)
Kd [13]: 56 µM | Kd [14]: 5 µM

B25: GLUT7_10 (long peptide of Solute carrier family 2, facilitated glucose transporter member 7: the last ten residues) (peptide)
peptide: Biotin-TASPAKETSF
notes: also called GLUT7 long; source: synthetic peptide (JPT Peptide Technologies)
Kd [13]: 45 µM | Kd [14]: 5 µM

B26: TMEM215_05 (short peptide of Transmembrane protein 215: GSGAG and the last five residues) (peptide)
peptide: Biotin-GSGAGHETIV
notes: also called TMEM215 short; source: synthetic peptide (JPT Peptide Technologies)
Kd [15]: 116 µM | Kd [8]: 213 µM | Kd [16]: 15 µM

B27: TMEM215_10 (long peptide of Transmembrane protein 215: the last ten residues) (peptide)
peptide: Biotin-QGRWDHETIV
notes: also called TMEM215 long; source: synthetic peptide (JPT Peptide Technologies)
Kd [15]: 67 µM | Kd [8]: 128 µM | Kd [16]: 9 µM

B28: VANG2_05 (short peptide of Vang-like protein 2: GSGAG and the last five residues) (peptide)
peptide: Biotin-GSGAGSETSV
notes: also called VANG2 short; source: synthetic peptide (JPT Peptide Technologies)
Kd [8]: 24 µM | Kd [16]: 4 µM

B29: VANG2_10 (long peptide of Vang-like protein 2: the last ten residues) (peptide)
peptide: Biotin-VMRLQSETSV
notes: also called VANG2 long; source: synthetic peptide (JPT Peptide Technologies)
Kd [8]: 12 µM | Kd [16]: 5 µM

B30: MARCH3_05 (short peptide of E3 ubiquitin-protein ligase MARCH3: GSGAG and the last five residues) (peptide)
peptide: Biotin-GSGAGKETVV
notes: also called MARCH3 short; source: synthetic peptide (JPT Peptide Technologies)
Kd [17]: 225 µM | Kd [8]: 46 µM | Kd [16]: 7 µM

B31: MARCH3_10 (long peptide of E3 ubiquitin-protein ligase MARCH3: the last ten residues) (peptide)
peptide: Biotin-VKRNSKETVV
notes: also called MARCH3 long; source: synthetic peptide (JPT Peptide Technologies)
Kd [17]: 103 µM | Kd [15]: 686 µM | Kd [8]: 100 µM | Kd [16]: 16 µM

B32: FZD4_05 (short peptide of Frizzled-4: GSGAG and the last five residues) (peptide)
peptide: Biotin-GSGAGSETVV
notes: also called FZD4 short; source: synthetic peptide (JPT Peptide Technologies)
Kd [17]: 146 µM

B33: MAS_05 (short peptide of Proto-oncogene Mas: GSGAG and the last five residues) (peptide)
peptide: Biotin-GSGAGVETVV
notes: also called MAS short; source: synthetic peptide (JPT Peptide Technologies)
Kd [17]: 2740 µM | Kd [15]: 90 µM | Kd [8]: 158 µM | Kd [16]: 16 µM

B34: MAS_10 (long peptide of Proto-oncogene Mas: the last ten residues) (peptide)
peptide: Biotin-CNTVTVETVV
notes: also called MAS long; source: synthetic peptide (JPT Peptide Technologies)
Kd [10]: 123 µM | Kd [6]: 73 µM | Kd [7]: 3 µM

B35: FZD4_10 (long peptide of Frizzled-4: the last ten residues) (peptide)
peptide: Biotin-KPGKGSETVV
notes: also called FZD4 long; source: synthetic peptide (JPT Peptide Technologies)
Kd [9]: 23 µM
